The data set deals with Nucleocapsid protein (N), unmodified (SARS-CoV-2, UniProt P0DTC9 2-419). In words: fluorescence polarization. To be noted: protein: recombinant, tags: N-terminal 6xHis-TEV site, cleaved by TEV (Gly left before S2), chain copies: 2, label: 5'-FAM. (In fluorescence polarisation assays a small probe gives low polarisation when free and higher when bound to something large.)

B1: SL4 RNA (structured_RNA)
RNA: CUGUGUGGCUGUCACUCGGCUGCAUGCUUAGUGCACUCACGCAG
As a reminder, the Kd is the equilibrium constant for the complex coming apart. For B1, the Kd (hairpin) is 10.9 ± 1.4 nM.

B2: polyrA 30-mer (ssRNA)
RNA: AAAAAAAAAAAAAAAAAAAAAAAAAAAAAA
With B2, the Kd (single strand, unstructured) stood at 71.7 ± 0.8 nM.
